One molecule from publication PMC4949121 (Inorganic chemistry, 2016) can be followed below.

Data set [1] has as its system C57BL/6 mice bearing B16F10 xenografts.
Data set [2] in a line: in vivo. The following applies: female, C57BL/6, mouse, tumor and muscle, iv, total radioactivity.
Data set [3] relates to VLA-4-overexpressing B16F10 mouse melanoma cells. In words: Cell internalization assay. The following applies: 10 pmol per well. In kind it is cell-based.
Data set [4] is described as follows: in vivo. The settings on record: female, C57BL/6, mouse, iv, total radioactivity.

With `Cc1ccccc1NC(=O)Nc1ccc(CC(=O)N[C@@H](CCCCNC(=O)/C=C/c2cccnc2)C(=O)N[C@@H](CCCC(=O)O)C(=O)NC2(C(=O)NCCOCCOCCOCCOCC(=O)N[C@@H](CCCCNC(=S)Nc3ccc(CCCN(CCN4CCN(CC(=O)O)CCN(CC(=O)O)CC4)CC(=O)O)cc3)C(N)=O)CCCCC2)cc1` [^64Cu-NE3TA-PEG4-LLP2A, metal not drawn], the “liver and kidney uptake” value in data set [1] (biodistribution) is given as “relatively low”. The “uptake in tumor, spleen, bone, lung, and thymus with blocking” value in data set [1] (coinjection of excess unlabeled LLP2A-PEG4 (100 μg)) is on record as “significantly reduced”. In the data set “in vivo [2]”, the tissue to tissue ratio at 2 h came to 13.1 ± 2.4 and the tissue to tissue ratio at 4 h came to 30.9 ± 0.7. Also, the “time at which internalization became saturated” value in data set [3] (time points 15 min, 1 h, 2 h, 4 h) is on record as ~ 2 h. Moreover, the “specific internalization (total minus blocked)” value in data set [3] (up to 4 h, blocking with unlabeled LLP2A-PEG4 10 μg per well) was “High specific internalization”. Also, the tissue to tissue ratio at 4 h in “in vivo [4]” (tumor and blood) turned out to be 16.8 ± 1.8. Also, the tissue to tissue ratio at 24 h in “in vivo [4]” (tumor and muscle) stood at 25.2 ± 7.8.
